The target of assay [1] is T1, human Fn14 Subdomain 2 peptide (AA51-70), biotinylated (human, added C-terminal Lys carries Ahx-biotin; C-terminal amide).
T1 peptide: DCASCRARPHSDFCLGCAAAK
The assay is described as follows: biolayer interferometry (ForteBio Octet); biotinylated peptide on streptavidin biosensor, response at 120 s of association. On the procedure: (§1) A ForteBio Octet Qke instrument (ForteBio) was used to measure the ability of purified antibodies to bind Fn14 peptides. The assays were performed at 30° C. in 96-well half area plates (Grenier, cat# 675076), with agitation set to 1000 rpm, in kinetic buffer (provided in the assay kit) to minimize nonspecific interactions. Biosensor tips were equilibrated in kinetic buffer for 600 s prior to use. Soluble biotinylated peptides (20 μg/ml, Subdomain 1 (AA30-50): […]-[K-Ahx-biotin]-amide (SEQ ID NO: 182) and Subdomain 2 (AA51-70): […]-[K-Ahx-biotin]-amide (SEQ ID NO: 183) synthesized by 21′ Century Biochemicals) in kinetic buffer were immobilized on streptavidin-coated biosensors (ForteBio, cat# 18-5020) for 300 seconds. […] Purified antibodies (20 μg/m1) were allowed to bind the immobilized peptides. Association was measured for 300 seconds, using the high sensitivity kinetics setting. To characterize the binding properties of the antibody candidates, the response (nm) at t =120 seconds from the start of the association step was recorded. All values were compared to a control sample (isotype antibody).

Assay [2] concerns the target T2, human Fn14 Subdomain 1 peptide (AA30-50), biotinylated (human, added C-terminal Lys carries Ahx-biotin; C-terminal amide).
T2 peptide: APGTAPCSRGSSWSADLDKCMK
Description: biolayer interferometry (ForteBio Octet); biotinylated peptide on streptavidin biosensor, antibody in solution, response at 120 s of association. Here is the method:
as §1

For assay [3], the target named is T3, human Fn14 (full length) on cells (human, UniProt Q9NP84 28-129).
T3 sequence: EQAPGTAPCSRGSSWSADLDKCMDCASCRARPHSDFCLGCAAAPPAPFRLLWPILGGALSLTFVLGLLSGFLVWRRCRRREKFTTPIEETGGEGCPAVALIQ
Description: cell-based or functional assay.

Assay [4] deals with T4, untagged human Fn14 extracellular domain (aa 28-75), SUMO-cleaved (human, UniProt Q9NP84 28-75).
T4 construct: Electron density seen for residues 32-68; also called Fn14 (crystallization)
Description: co-crystal structure. On the procedure:
Purified Fn14 and His-tagged 41c Fab or R35B9 Fab proteins were mixed in a 1:1 stoichiometric ratio, concentrated to 1 mg/mL and then subjected to crystallization. Initial crystallization trials were performed in a 96-well format using a nano-liter dispensing liquid handling robot (Phoenix, Art Robbins Ltd.) while mixing 0.15 μL protein with 0.15 μL precipitant from different commercially available crystallization screens (JCSG core+and JCSG core 1 screens). Over 200 crystallization conditions were tested using the sitting drop vapor diffusion method and crystallization trails were carried out at both 4° C. and 22° C. Optimization of all crystallization conditions was performed manually by both hanging drop and sitting drop methods. Crystals were obtained in various conditions containing PEG 3350 or PEG 6000 as the common precipitant and were grown over 3 days. […]
The structure had good geometry with 4 residues (0.89%) as outliers and 97.6% residues in favored region of the Ramachandran plot. Correspondingly, the structure of Fn14 -R35B9-His Fab complex was determined by molecular replacement using the phase information obtained from Fn14-41c-His Fab complex and the structure was refined to 2.3 Å with residual factors R/Rfree=20.9/23.3.

Assay [5] concerns the target T5, His-SUMO-huFn14 (soluble human Fn14 aa 28-75 with N-terminal 6xHis-SUMO tag) (human).
T5 construct: also called His-SUMO-Fn14; His-SUMO-hFn14
The assay is described as follows: SPR Biacore T200; His-SUMO-huFn14 amine-coupled, Fab analyte; 1:1 fit. Here is the method: (§2) In order to kinetically analyze the binding activity of anti-Fn14 mouse antibodies 41c, R35B9, and CRCBT-06-002 to recombinant human and cynomolgus macaque Fn14 proteins, the binding activity was measured by surface plasmon resonance method (SPR). Antibodies were generated as described herein. All of the following procedures were carried out using a Biacore T200 (GE Healthcare Bio-Sciences). To determine antibody affinity to human Fn14, recombinant human His-SUMO-Fn14 was immobilized on a CMS sensor chip (GE Healthcare Bio-Sciences) by amine coupling chemistry. In particular, the kinetic assay was carried out by immobilizing on the chip approximately 20-30 RU of recombinant protein, in order to achieve a low protein immobilization level. To determine antibody affinity to cynomolgus macaque Fn14, polyclonal anti-GST antibodies were immobilized on a CMS sensor chip (GE Healthcare Bio-Sciences) by amine coupling chemistry. In particular, after immobilizing approximately 1500 RU of anti-GST capture antibody onto the chip, cynomolgus macaque GST-Fn14 in culture supernatant was allowed to run for 5 minutes at a flow rate of 30 μL/min in order to achieve a low capture level of approximately 20 RU. Thereafter, antibody Fab fragments, serially diluted from a high concentration, were allowed to run at a flow rate of 30 μL/min onto the chip for 300 seconds. The dissociation time was 1800 seconds and the binding curves were measured at 25° C. Regeneration was performed with 10 mM glycine pH 1.5 for 30 seconds. The raw data were double referenced by subtraction of the signals from a reference flow cell without immobilized ligand and a buffer blank.
(§3) A sensorgram corresponding to each concentration was obtained (see FIG. 5). Analysis was carried out using a 1:1 Langmuir fit model using the analysis software attached to the apparatus, Biacore T200 Evaluation software (Biacore), thereby calculating an association rate constant ka [M-1s-1] and a dissociation rate constant kd [s-1] for the recombinant Fn14 proteins. […] Cross-reactivity of anti-Fn14 mouse antibodies to recombinant mouse GST-Fn14 protein was measured as described above.

The target in a further assay is T6, mouse Fn14-GST (mouse).
T6 construct: also called mouse GST-Fn14
The assay is described as follows: SPR (Biacore T200); mouse Fn14-GST captured by immobilized anti-GST antibody, analyte at 10 nM. Here is the method: (§4) In order to kinetically analyze the binding activity of anti-Fn14 mouse antibodies 41c, R35B9, and CRCBT-06-002 to recombinant human and cynomolgus macaque Fn14 proteins, the binding activity was measured by surface plasmon resonance method (SPR). Antibodies were generated as described herein. All of the following procedures were carried out using a Biacore T200 (GE Healthcare Bio-Sciences). To determine antibody affinity to human Fn14, recombinant human His-SUMO-Fn14 was immobilized on a CMS sensor chip (GE Healthcare Bio-Sciences) by amine coupling chemistry. In particular, the kinetic assay was carried out by immobilizing on the chip approximately 20-30 RU of recombinant protein, in order to achieve a low protein immobilization level. To determine antibody affinity to cynomolgus macaque Fn14, polyclonal anti-GST antibodies were immobilized on a CMS sensor chip (GE Healthcare Bio-Sciences) by amine coupling chemistry. […] The dissociation time was 1800 seconds and the binding curves were measured at 25° C. […]
(§5) A sensorgram corresponding to each concentration was obtained (see FIG. 5). […] Cross-reactivity of anti-Fn14 mouse antibodies to recombinant mouse GST-Fn14 protein was measured as described above.

Assay [6] deals with T7, cynomolgus macaque Fn14-GST (cynomolgus macaque (Macaca fascicularis)).
T7 construct: Used from culture supernatant, captured by anti-GST; also called cyno Fn14-GST; CynoFn14
T7 sequence (chain, as listed by the source): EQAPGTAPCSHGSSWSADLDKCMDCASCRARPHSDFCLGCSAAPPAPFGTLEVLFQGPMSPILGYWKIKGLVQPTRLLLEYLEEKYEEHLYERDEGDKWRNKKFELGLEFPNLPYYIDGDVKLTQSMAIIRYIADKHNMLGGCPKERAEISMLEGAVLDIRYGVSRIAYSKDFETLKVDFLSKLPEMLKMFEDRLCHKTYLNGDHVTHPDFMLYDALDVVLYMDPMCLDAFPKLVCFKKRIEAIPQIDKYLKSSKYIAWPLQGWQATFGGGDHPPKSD
The assay is described as follows: SPR Biacore T200; cyno Fn14-GST captured by anti-GST, Fab analyte; 1:1 fit. On the procedure: as §2, §3

In assay [7] the target is T5, His-SUMO-huFn14 (soluble human Fn14 aa …). The assay is described as follows: SPR Biacore T200; His-SUMO-huFn14 amine-coupled, Fab analyte; average of two runs. Here is the method: as §4, §5
The target of assay [8] is T7, cynomolgus macaque Fn14-GST. Description: SPR Biacore T200; cyno Fn14-GST captured by anti-GST, Fab analyte; average of two runs. On the procedure:
as §4, §5

These results are taken from patent publication US20220289857A1 (Kyowa Kirin, published 2022).

Several values for one entry are separate records, joined by “and”; a condition that tells them apart may be missing. Equal values may be shown once.

T5 sequence (chain, as listed by the source limits assumed): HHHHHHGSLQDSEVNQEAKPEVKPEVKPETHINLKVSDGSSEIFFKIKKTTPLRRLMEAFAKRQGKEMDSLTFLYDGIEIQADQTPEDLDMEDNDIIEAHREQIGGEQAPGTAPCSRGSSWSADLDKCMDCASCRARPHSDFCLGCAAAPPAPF

B1: 41c recombinant mouse IgG1(D265A), kappa antibody (A291/A290) (antibody, V domains shown)
VH: EVQLQQSGPELVKPGASVKMSCKASGYTFTDYNMHWVKQSHGKSLEWIGYINPNNGGTNYNQKFKGKATLTVNKSSRSAYMEFRSLTSEDSAVYYCASSGWFTYWGQGTLVTVSA
VL: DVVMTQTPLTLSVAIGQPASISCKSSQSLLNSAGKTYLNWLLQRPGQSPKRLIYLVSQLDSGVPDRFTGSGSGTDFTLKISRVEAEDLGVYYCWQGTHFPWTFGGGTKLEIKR
In the case of B1, the binding result is given as “no binding (tested: 20 µg/mL)” in assay [1] and “binds” in assay [2]. Also, in [3], the “ICAM-1 MFI on HRMC, 250 ng/mL rhTWEAK, mAb 0.1 µg/mL” value was determined as 13100 MFI.

B2: 41c-His Fab (recombinant, bacterial, for crystallization) (Fab, V domains shown)
VH: EVQLQQSGPELVKPGASVKMSCKASGYTFTDYNMHWVKQSHGKSLEWIGYINPNNGGTNYNQKFKGKATLTVNKSSRSAYMEFRSLTSEDSAVYYCASSGWFTYWGQGTLVTVSA
VL: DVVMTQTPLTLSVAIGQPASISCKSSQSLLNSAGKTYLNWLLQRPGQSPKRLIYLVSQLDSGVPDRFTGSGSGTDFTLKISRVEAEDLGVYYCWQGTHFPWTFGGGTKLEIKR
notes: Two extra N-terminal residues on each chain (Leu-Glu heavy, Ser-Arg light); C-terminal linker and 6xHis on the heavy chain; also called His-tagged 41c Fab
As for B2, the binding result in [4] was “binds”.

B3: R35B9-His Fab (recombinant, bacterial, for crystallization) (Fab, V domains shown)
VH: EVQLQQSGPELVKPGASVKMSCKASGYIFQDYNMHWVKQSHGKSLEWIGSINPRNGWTNYNQKFKGKATLTVNKSSRSAYMEFRSLTSEDSAVYYCASSGWFTYWGQGTLVTVSA
VL: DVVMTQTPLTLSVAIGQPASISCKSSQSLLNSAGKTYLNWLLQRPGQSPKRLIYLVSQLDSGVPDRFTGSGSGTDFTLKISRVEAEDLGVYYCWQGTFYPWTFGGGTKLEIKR
notes: also called R35B9 Fab-His
Turning to B3, in assay [4], the binding result is given as “binds”.

B4: R35B9 Fab (enzymatic digest of the mouse IgG1 antibody) (Fab, V domains shown, not shown: a dimerising Fc or GST)
VH: EVQLQQSGPELVKPGASVKMSCKASGYIFQDYNMHWVKQSHGKSLEWIGSINPRNGWTNYNQKFKGKATLTVNKSSRSAYMEFRSLTSEDSAVYYCASSGWFTYWGQGTLVTVSA
VL: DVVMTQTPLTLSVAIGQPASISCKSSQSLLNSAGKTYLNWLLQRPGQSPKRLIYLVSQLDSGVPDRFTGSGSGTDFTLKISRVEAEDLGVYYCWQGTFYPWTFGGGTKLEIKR
notes: Made with the mouse IgG1 Fab and F(ab')2 preparation kit; also called R35B9 Fab LM042817
Consider B4, for which the Kd in assay [5] was 0.205 nM and 0.21 nM; in assay [6], 0.235 nM and 0.222 nM; in assay [7] it was 0.208 nM; in assay [8] it was 0.229 nM. Moreover, the dissociation rate constant (koff) in assay [5] was 0.00063 s⁻¹ and 0.000427 s⁻¹; in [6] it was 0.000342 s⁻¹ and 0.00038 s⁻¹. For the same molecule, the kon was 3.07e+06 M⁻¹ s⁻¹ and 2.03e+06 M⁻¹ s⁻¹ in [5]; 1.46e+06 M⁻¹ s⁻¹ and 1.71e+06 M⁻¹ s⁻¹ in assay [6]. Moreover, the binding result in the assay with mouse Fn14-GST is reported as “binds”.

B5: 41c Fab (enzymatic digest of the mouse IgG1 antibody) (Fab, V domains shown, not shown: a dimerising Fc or GST)
VH: EVQLQQSGPELVKPGASVKMSCKASGYTFTDYNMHWVKQSHGKSLEWIGYINPNNGGTNYNQKFKGKATLTVNKSSRSAYMEFRSLTSEDSAVYYCASSGWFTYWGQGTLVTVSA
VL: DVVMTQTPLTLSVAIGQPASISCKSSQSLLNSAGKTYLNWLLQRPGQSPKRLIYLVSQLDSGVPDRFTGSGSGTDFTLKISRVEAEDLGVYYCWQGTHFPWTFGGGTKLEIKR
notes: Made with the mouse IgG1 Fab and F(ab')2 preparation kit; also called 41C Fab LM101416
With B5, the dissociation constant (Kd) is 2.15 nM and 1.81 nM in [5]; 3.48 nM and 3.28 nM in assay [6]; 1.98 nM in [7]; 3.38 nM in assay [8]. For the same molecule, the koff in assay [5] is 0.00242 s⁻¹ and 0.00266 s⁻¹; in [6], 0.00153 s⁻¹ and 0.00223 s⁻¹. For the same molecule, the kon in assay [5] is 1.13e+06 M⁻¹ s⁻¹ and 1.47e+06 M⁻¹ s⁻¹; in [6] it was 441000 M⁻¹ s⁻¹ and 678000 M⁻¹ s⁻¹. Besides, the binding result in the assay with mouse Fn14-GST is “binds”.

B6: R35B9 mouse IgG1(D265A), kappa antibody (A402/A403) (antibody)
heavy: EVQLQQSGPELVKPGASVKMSCKASGYIFQDYNMHWVKQSHGKSLEWIGSINPRNGWTNYNQKFKGKATLTVNKSSRSAYMEFRSLTSEDSAVYYCASSGWFTYWGQGTLVTVSAAKTTPPSVYPLAPGSAAQTNSMVTLGCLVKGYFPEPVTVTWNSGSLSSGVHTFPAVLESDLYTLSSSVTVPSSPRPSETVTCNVAHPASSTKVDKKIVPRDCGCKPCICTVPEVSSVFIFPPKPKDVLTITLTPKVTCVVVAISKDDPEVQFSWFVDDVEVHTAQTQPREEQFNSTFRSVSELPIMHQDWLNGKEFKCRVNSAAFPAPIEKTISKTKGRPKAPQVYTIPPPKEQMAKDKVSLTCMITDFFPEDITVEWQWNGQPAENYKNTQPIMNTNGSYFVYSKLNVQKSNWEAGNTFTCSVLHEGLHNHHTEKSLSHSPGK
light: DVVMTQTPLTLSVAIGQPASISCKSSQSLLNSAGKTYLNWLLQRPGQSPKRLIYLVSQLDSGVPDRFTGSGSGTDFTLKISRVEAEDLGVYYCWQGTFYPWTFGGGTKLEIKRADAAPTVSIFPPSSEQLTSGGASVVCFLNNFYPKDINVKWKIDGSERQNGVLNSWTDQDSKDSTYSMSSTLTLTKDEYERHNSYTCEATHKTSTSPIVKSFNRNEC
As to B6, the binding result in assay [1] is given as “no binding (tested: 20 µg/mL)”; in [2], “binds”. Further, the “ICAM-1 MFI on HRMC, 250 ng/mL rhTWEAK, mAb 0.1 µg/mL” value in assay [3] is 5830 MFI.
